System: T1, DNASE1-LIKE 3, Isoform 1 (wild-type human D1L3), purified
T1 sequence: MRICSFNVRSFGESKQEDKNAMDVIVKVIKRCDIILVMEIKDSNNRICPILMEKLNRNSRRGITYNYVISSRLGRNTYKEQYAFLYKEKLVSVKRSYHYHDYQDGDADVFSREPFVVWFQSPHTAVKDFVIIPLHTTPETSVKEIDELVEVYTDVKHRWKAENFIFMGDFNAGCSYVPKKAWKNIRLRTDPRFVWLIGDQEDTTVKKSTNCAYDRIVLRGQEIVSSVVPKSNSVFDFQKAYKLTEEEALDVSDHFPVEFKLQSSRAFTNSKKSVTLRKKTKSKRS

Substance	proteolytic cleavage sites (digestion, fragments sequenced by LC and MS)
plasmin (purified)	plasmin cleaved D1L3 at the following arginine and lysine residues: R22, R29, K45, K47, K74, R81, R92, K107, K176, R212, R226, R227, K250, K259, and K262
trypsin	trypsin cleaved D1L3 at the following arginine and lysine residues: R22, R29, R51, R66, R80, R81, R95, K99, R115, K147, K163, K180, R208, R212, R235, R239, K250, and K262
